Source: US12194076B2, “Methods and compositions for treating myelofibrosis” (Acceleron Pharma Inc., priority 2016, dated 2025)
One block for each molecule: values may come before it.

How the values were obtained:
[1] = tested on: anemic myelofibrosis patients; details: cited from earlier work
C57BL/6 mice = assay: GDF trap in ruxolitinib treated animals, hematological parameters; assay type: in vivo; details: 60 mg/kg twice daily, four weeks
Source text: Ruxolitinib is a Janus kinase inhibitor that has been approved for the treatment of intermediate or high-risk myelofibrosis. […] However, a variety of hematological side effects have been observed in patients treated with ruxolitinib including, for example, anemia. Nine month old C57BL/6 mice were used to understand the effects of ActRIIB(L79D 25-131)-Fc treatment on various hematological parameters in ruxolitinib treated mice.
For this study, treatment was initiated at 6-7 months of age. Mice were placed into one of four groups: i) treatment with ActRIIB(L79D 25-131)-Fc on a dosing schedule of 10 mg/kg twice weekly; ii) treatment with ruxolitinib on a dosing schedule of 60 mg/kg twice daily; iii) treatment with ActRIIB(L79D 25-131)-Fc on a dosing schedule of 10 mg/kg twice weekly and ruxolitinib on a dosing schedule of 60 mg/kg twice daily; and iv) treatment with vehicle (TBS) twice weekly (i.e., control animals).

Activin A [2] = target: T1, Activin A (Homo sapiens, UniProt P08476); assay: Biacore steady-state affinity of ActRIIB-hFc proteins for activin A; assay type: binding; details: compared to counterparts lacking the L79D substitution
T1 sequence (P08476 311-426): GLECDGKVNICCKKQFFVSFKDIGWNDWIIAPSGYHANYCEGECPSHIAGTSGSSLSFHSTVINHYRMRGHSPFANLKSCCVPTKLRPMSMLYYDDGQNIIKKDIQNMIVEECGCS
Procedure: (§1) Affinities of several ligands for ActRIIB(25-131)-hFc and its full-length counterpart ActRIIB(20-134)-hFc were evaluated in vitro with a Biacore™ instrument, and the results are summarized in the table below. Kd values were obtained by steady-state affinity fit due to very rapid association and dissociation of the complex, which prevented accurate determination of kon and koff. ActRIIB(25-131)-hFc bound activin A, activin B, and GDF11 with high affinity.
(§2) The affinity of GDF traps and other ActRIIB-hFc proteins for several ligands was evaluated in vitro with a Biacore™ instrument. Kd values were obtained by steady-state affinity fit due to the very rapid association and dissociation of the complex, which prevented accurate determination of kon and koff.

Activin B = target: T2, Activin B (Homo sapiens, UniProt P09529); assay: Biacore steady-state affinity of ActRIIB-hFc proteins for activin B; assay type: binding; details: compared to counterparts lacking the L79D substitution
T2 sequence (P09529 293-407): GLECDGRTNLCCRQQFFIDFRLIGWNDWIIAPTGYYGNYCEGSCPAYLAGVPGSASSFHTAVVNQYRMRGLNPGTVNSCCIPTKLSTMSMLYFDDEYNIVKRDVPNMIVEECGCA
Procedure: as §1, §2

GDF11 [3] = target: T3, GDF11 (Homo sapiens, UniProt O95390); assay: Biacore steady-state affinity of ActRIIB-hFc proteins for GDF11; assay type: binding; details: compared to counterparts lacking the L79D substitution
T3 sequence (O95390 299-407): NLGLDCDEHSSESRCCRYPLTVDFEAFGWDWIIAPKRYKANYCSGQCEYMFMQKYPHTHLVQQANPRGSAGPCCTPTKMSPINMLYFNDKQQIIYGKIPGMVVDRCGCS
Procedure: as §1, §2

GDF8 [4] = target: T4, GDF8 (Homo sapiens, UniProt O14793); assay: Biacore ligand binding of GDF trap, GDF8
T4 sequence (O14793 267-375): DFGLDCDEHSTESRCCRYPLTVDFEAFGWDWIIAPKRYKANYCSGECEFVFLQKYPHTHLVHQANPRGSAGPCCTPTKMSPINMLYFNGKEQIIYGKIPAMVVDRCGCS
Procedure: as §2

BMP6 = target: T5, BMP6 (Homo sapiens, UniProt P22004); assay: Biacore ligand binding of GDF trap, BMP6
T5 sequence (P22004 375-513): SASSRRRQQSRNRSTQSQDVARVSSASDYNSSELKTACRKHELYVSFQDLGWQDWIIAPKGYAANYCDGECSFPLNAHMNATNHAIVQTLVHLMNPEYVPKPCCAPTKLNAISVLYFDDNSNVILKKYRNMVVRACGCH
Procedure: as §2

BMP10 = target: T6, BMP10 (Homo sapiens, UniProt O95393); assay: Biacore ligand binding of GDF trap, BMP10
T6 sequence (O95393 317-424): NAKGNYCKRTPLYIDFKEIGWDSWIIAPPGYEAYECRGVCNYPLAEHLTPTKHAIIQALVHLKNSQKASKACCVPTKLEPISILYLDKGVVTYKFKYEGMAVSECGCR
Procedure: as §2

Serum half-life in rats = assay type: in vivo
Procedure: Several variants have been assessed for serum half-life in rats. ActRIIB(20-134)-Fc has a serum half-life of approximately 70 hours. […] Any of the variants tested above, may be combined with the GDF trap molecules.

activin [5] = assay: Affinity/binding of ActRIIB-Fc fusion proteins for activin; details: ActRIIB-Fc fusion protein, position 64 variant
GDF11 [6] = target: T3, GDF11; assay: Affinity/binding of ActRIIB-Fc fusion proteins for GDF11; details: ActRIIB-Fc fusion protein, position 64 variant
GDF11 [7] = target: T3, GDF11; assay: Biacore assay, receptor captured with anti-hFc antibody, GDF11 injected; assay type: binding; details: receptor captured via anti-hFc antibody
Procedure: (§3) Binding of certain ActRIIB-Fc proteins and GDF traps to ligands was tested in a Biacore™ assay.
(§4) The ActRIIB-Fc variants or wild-type protein were captured onto the system using an anti-hFc antibody. Ligands were injected and flowed over the captured receptor proteins.

GDF8 [8] = target: T4, GDF8; assay: Biacore assay, receptor captured with anti-hFc antibody, GDF8 injected; assay type: binding; details: receptor captured via anti-hFc antibody
Procedure: as §3, §4

Activin A [9] = target: T1, Activin A; assay: Biacore assay, receptor captured with anti-hFc antibody, activin A injected; assay type: binding; details: receptor captured via anti-hFc antibody
Procedure: as §3, §4

GDF11 [10] = target: T3, GDF11; assay: A-204 reporter gene assay, inhibition of GDF-11 signaling; assay type: cell-based; set-up: host or cells: added to A-204 cells (human rhabdomyosarcoma)
Source text: (§5) An A-204 reporter gene assay was used to evaluate the effects of ActRIIB-Fc proteins and GDF traps on signaling by GDF-11 and activin A. Cell line: human rhabdomyosarcoma (derived from muscle). Reporter vector: pGL3(CAGA)12 (described in Dennler et al, 1998, EMBO 17: 3091-3100). The CAGA12 motif is present in TGF-beta responsive genes (e.g., PAI-1 gene), so this vector is of general use for factors signaling through SMAD2 and 3.
(§6) Day 1: Split A-204 cells into 48-well plate.
(§7) Day 2: A-204 cells transfected with 10 ug pGL3(CAGA)12 or pGL3(CAGA)12(10 ug)+pRLCMV (1 μg) and Fugene.
(§8) Day 3: Add factors (diluted into medium+0.1% BSA). Inhibitors need to be preincubated with factors for 1 hr before adding to cells. Six hrs later, cells were rinsed with PBS and lysed.
(§9) This is followed by a luciferase assay.
(§10) Activity of ActRIIB-Fc proteins and GDF traps was tested in a cell-based assay as described above. Some variants were tested in different C-terminal truncation constructs. As discussed above, truncations of five or fifteen amino acids caused reduction in activity.

Activin A [11] = target: T1, Activin A; assay: A-204 reporter gene assay, inhibition of activin A signaling; assay type: cell-based; set-up: host or cells: added to A-204 cells (human rhabdomyosarcoma)
Source text: as §5, §6, §7, §8, §9, §10

GDF8 [12] = target: T4, GDF8; assay: A-204 reporter gene assay, inhibition of GDF-8 activity; assay type: cell-based; set-up: host or cells: added to A-204 cells (human rhabdomyosarcoma)
activin [13] = details: see U.S. Pat. No. 7,842,663; cited from earlier work
GDF11 [14] = target: T3, GDF11; details: see U.S. Pat. No. 7,842,663; cited from earlier work
GDF11 [15] = target: T3, GDF11; details: ligand coupled to the device; reproduced from WO2006/012627; cited from earlier work

Molecule: C#C[C@]1(O)CC[C@H]2[C@@H]3CCC4=Cc5oncc5C[C@]4(C)[C@H]3CC[C@@]21C [danazol]
- anemia response rate [1]: around 20%

B1: ActRIIB(20-134)-Fc: ActRIIB-Fc fusion protein containing amino acids 20-134 of SEQ ID NO: 1 (protein)
chain: GRGEAETRECIYYNANWELERTNQSGLERCEGEQDKRLHCYASWRNSSGTIELVKKGCWLDDFNCYDRQECVATEENPQVYFCCCEGNFCNERFTHLPEAGGPEVTYEPPPTAPT
modifications: Fc fusion partner without entry
- serum half-life (Serum half-life in rats): approximately 70 hours

B2: A64 20-134: ActRIIB-Fc fusion protein, residues 20-134, alanine at position 64 (protein)
chain: GRGEAETRECIYYNANWELERTNQSGLERCEGEQDKRLHCYASWANSSGTIELVKKGCWLDDFNCYDRQECVATEENPQVYFCCCEGNFCNERFTHLPEAGGPEVTYEPPPTAPT
modifications: Fc fusion partner without entry
- affinity for activin, in words (activin [5]): relatively low affinity
- affinity for GDF11, in words (GDF11 [6]): relatively low affinity

B4: ActRIIB(20-119)-Fc: ActRIIB-Fc fusion protein containing amino acids 20-119 of SEQ ID NO: 1 (protein)
chain: GRGEAETRECIYYNANWELERTNQSGLERCEGEQDKRLHCYASWRNSSGTIELVKKGCWLDDFNCYDRQECVATEENPQVYFCCCEGNFCNERFTHLPEA
modifications: Fc fusion, Fc no entry
- binding to activin relative to ActRIIB(20-134)-Fc (activin [13]): reduced
- binding to GDF11 relative to ActRIIB(20-134)-Fc (GDF11 [14]): reduced

B5: K74A: soluble ActRIIB-Fc variant K74A, data from WO2006/012627 (protein)
chain: SGRGEAETRECIYYNANWELERTNQSGLERCEGEQDKRLHCYASWANSSGTIELVAKGCWLDDFNCYDRQECVATEENPQVYFCCCEGNFCNERFTHLPEA
modifications: left off: a dimerising Fc or GST
- GDF11 binding relative to WT (GDF11 [15]): +++++ (~40x increased binding)

Continued, values first:

- decrease of hemoglobin levels compared to control animals (C57BL/6 mice): ~4%
- decrease of red blood cell levels compared to control animals (C57BL/6 mice): ~4%
Molecule: N#CC[C@H](C1CCCC1)n1cc(-c2ncnc3[nH]ccc23)cn1 [ruxolitinib]

- activin A binding, in words (Activin A [2]): high affinity
- activin B binding, in words (Activin B): high affinity
- GDF11 binding, in words (GDF11 [3]): high affinity
Molecule: ActRIIB(25-131)-hFc: human ActRIIB extracellular domain residues 25-131 fused to human Fc via three glycine residues, mature SEQ ID NO: 28

- activin A binding, in words (Activin A [2]): pronounced loss
- activin B binding, in words (Activin B): partial loss
- GDF11 binding, in words (GDF11 [3]): nearly full retention
- binding to GDF8, in words (GDF8 [4]): strong to intermediate
- binding to BMP6, in words (BMP6): strong to intermediate
- binding to BMP10, in words (BMP10): strong to intermediate
Molecule: ActRIIB(L79D 25-131)-hFc: GDF trap with truncated ActRIIB extracellular domain (residues 25-131, L79D) fused to human Fc, SEQ ID NO: 50, 53

- Koff (1/s), GDF11 (GDF11 [7]): 0.000113 s⁻¹
- Koff (1/s), GDF8 (GDF8 [8]): 3.45e-05 s⁻¹
- Koff (1/s), Activin A (Activin A [9]): 0.000159 s⁻¹
- Kon (1/Ms), Activin A (Activin A [9]): 5.94e+06 M⁻¹ s⁻¹
- affinity for activin, in words (activin [5]): low nanomolar to high picomolar range
- affinity for GDF11, in words (GDF11 [6]): low nanomolar to high picomolar range
- inhibition of GDF-11 activity, in words (GDF11 [10]): potent inhibitor
- inhibition of activin A activity, in words (Activin A [11]): potent inhibitor
- inhibition of GDF-8 activity, in words (GDF8 [12]): potent inhibitor
B3: ActRIIB(20-134)-hFc: extracellular domain of human ActRIIB (20-134, R64) fused to human Fc with three-glycine linker, SEQ ID NO: 24 (protein)
chain: GRGEAETRECIYYNANWELERTNQSGLERCEGEQDKRLHCYASWRNSSGTIELVKKGCWLDDFNCYDRQECVATEENPQVYFCCCEGNFCNERFTHLPEAGGPEVTYEPPPTAPTGGGTHTCPPCPAPELLGGPSVFLFPPKPKDTLMISRTPEVTCVVVDVSHEDPEVKFNWYVDGVEVHNAKTKPREEQYNSTYRVVSVLTVLHQDWLNGKEYKCKVSNKALPVPIEKTISKAKGQPREPQVYTLPPSREEMTKNQVSLTCLVKGFYPSDIAVEWESNGQPENNYKTTPPVLDSDGSFFLYSKLTVDKSRWQQGNVFSCSVMHEALHNHYTQKSLSLSPGK
